Residue numbers refer to the chain shown, from its start.
T1: hTREM2 (Homo sapiens, UniProt Q9NZC2)
T1 construct: The ecto domain (residues 19-172) of TREM2 (UniProtKB—Q9NZC2); secretion signal of mouse Ig kappa chain V-III (P01661 aa 1-20) (N); made in house; host or cells: Expi293F
T1 sequence (Q9NZC2 19-172): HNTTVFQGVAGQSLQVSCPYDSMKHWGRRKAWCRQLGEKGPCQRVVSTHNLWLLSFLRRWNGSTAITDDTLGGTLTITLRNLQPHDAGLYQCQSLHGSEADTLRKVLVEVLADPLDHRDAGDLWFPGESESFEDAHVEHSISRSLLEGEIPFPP

T2: TREM2 (Homo sapiens, UniProt Q9NZC2)
T2 construct: macrophage cells that endogenously express TREM2; endogenous in cells; host or cells: primary human monocyte-derived macrophages from donor blood
T2 sequence (Q9NZC2 19-230): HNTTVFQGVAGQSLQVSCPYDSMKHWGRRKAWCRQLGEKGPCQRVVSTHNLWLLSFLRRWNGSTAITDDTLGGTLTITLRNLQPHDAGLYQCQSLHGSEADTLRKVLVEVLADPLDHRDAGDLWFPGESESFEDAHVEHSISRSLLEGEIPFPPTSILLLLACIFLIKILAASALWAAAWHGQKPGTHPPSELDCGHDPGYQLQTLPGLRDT

B1: 54C2.A1: anti-TREM2 antibody clone; VH SEQ ID NO:22, VL SEQ ID NO:33 (antibody, V domains shown)
VH: QVHLQQSGSELRSPGSSVKLSCKDFDSEVFPIAYMSWVRQKPGHGFEWIGDILPSIGRRIYGVKFEDKATLDADTVSNTAYLELNSLTSEDSAIYYCTRKDYGSLAYWGQGTLVTVSA
VL: DVVMTQTPLSLPVSLGDQASISCRSSQSLVHINGNTYLQWYLQKPGQSPKLLIYKVSNRFSGVPDRFSGSGSGTDFTLRISRVEAEDLGVYFCSQSTHLPYTFGGGTKLEIK
B2: RS9.F6/3C35.21.17_LALAPG: TREM2/TfR-binding protein: RS9.F6 Fabs on TfR-binding knob Fc and hole Fc; SEQ ID NOs:35, 91, 92 (protein)
light: B1 VL with I32N, Y37F, Q39H, R79K, S96T, L99V, Y101P
heavy 1: QVQLQQPGAELVKPGASVKLSCKASGYTFTSYWMHWVKQSPGRGLEWIGRSDPTTGGTNYNEKFKTKATLTVDKPSSTAYMQLSSLTSDDSAVYYCVRTSGTGDYWGQGTSLTVSSASTKGPSVFPLAPSSKSTSGGTAALGCLVKDYFPEPVTVSWNSGALTSGVHTFPAVLQSSGLYSLSSVVTVPSSSLGTQTYICNVNHKPSNTKVDKKVEPKSCDKTHTCPPCPAPEAAGGPSVFLFPPKPKDTLMISRTPEVTCVVVDVSHEDPEVKFNWYVDGVEVHNAKTKPREEQYNSTYRVVSVLTVLHQDWLNGKEYKCKVSNKALGAPIEKTISKAKGQPREPQVYTLPPSRDELTKNQVSLWCLVKGFYPSDIAVLWESYGTEWASYKTTPPVLDSDGSFFLYSKLTVTKEEWQQGFVFSCSVMHEALHNHYTQKSLSLSPGK
heavy 2: QVQLQQPGAELVKPGASVKLSCKASGYTFTSYWMHWVKQSPGRGLEWIGRSDPTTGGTNYNEKFKTKATLTVDKPSSTAYMQLSSLTSDDSAVYYCVRTSGTGDYWGQGTSLTVSSASTKGPSVFPLAPSSKSTSGGTAALGCLVKDYFPEPVTVSWNSGALTSGVHTFPAVLQSSGLYSLSSVVTVPSSSLGTQTYICNVNHKPSNTKVDKKVEPKSCDKTHTCPPCPAPEAAGGPSVFLFPPKPKDTLMISRTPEVTCVVVDVSHEDPEVKFNWYVDGVEVHNAKTKPREEQYNSTYRVVSVLTVLHQDWLNGKEYKCKVSNKALGAPIEKTISKAKGQPREPQVYTLPPSRDELTKNQVSLSCAVKGFYPSDIAVEWESNGQPENNYKTTPPVLDSDGSFFLVSKLTVDKSRWQQGNVFSCSVMHEALHNHYTQKSLSLSPGK
B3: 24B4.A1: anti-TREM2 antibody clone; VH SEQ ID NO:17, VL SEQ ID NO:28 (antibody, V domains shown)
VH: B1 VH with A33S, V38I, R58G, K68R, T98A
VL: B1 VL with Y41F, D75A, R79K, L99V

Columns and labels:
[1] = test system: human macrophages; test: Signaling pathway Alpha-LISA (pSYK, pERK1/2, pGSK3-beta, pAKT) in human macrophages; format: cell-based; settings: 15 minutes
Description: Anti-TREM2 antibodies were characterized for activation of several signaling pathways, SYK, ERK1/2, AKT and GSK3-beta. Human macrophages differentiated from peripheral monocytes were plated in 96-well plates at a density of 100,000 cell/well. The assay was tested in three conditions (0%, 0.5%, and 10% FBS in the media) for 3 hours. Cells were stimulated with the antibody RS9.F6, 24B4.A1, 8A11.B1, 3D3.A1, 54C2.A1, isotype control IgG2ak, rat anti-TREM2 from R&D, isotype control rat IgG2b, or no treatment (NT) for 15 minutes. The cell lysates were measured for p-Y525/526-SYK, p-T202/Y204-ERK1/2, p-S9-GSK3-beta, and p-S473-AKT using Alpha-LISA kits (Perkin Elmer). […] The antibodies stimulated p-GSK signal moderately (FIG. 6C).

[2] = test system: human macrophages; test: Cell survival assay, human monocyte-derived macrophages, restricted or no M-CSF, CellTiter Glo; format: cell-based; settings: plate coated antibody, 5 ng/mL or no M-CSF, day 6
Description: TREM2 can support microglia energy homeostasis (Ulland et al., Cell, 2017, 170:649-663). […] To understand if enhancing TREM2 activity with TREM2 agonistic antibodies is sufficient for macrophage/microglia survival under limited M-CSF conditions, human macrophage differentiation and survival studies were performed using antibodies as described herein. Human monocytes isolated from peripheral blood were incubated with 5 ng/mL M-CSF in the presence of titrated concentrations of plate coated TREM2 antibodies or isotype controls. On day 6 cell viability was determined by CellTiter Glo viability assay.

[3] = molecular target: T1, hTREM2; test: Octet binning (competition with R&D antibody on biotinylated TREM2-His); format: binding; settings: epitope bin, 100 nM
Description: Competition with R&D antibody was done by Octet Red using biotinylated human Trem2-His protein generated in house. Biotinylated human TREM2-His protein was captured on a streptavidin tip, and the tip was then incubated in either 100 nM of R&D Ab or buffer for 3 minutes, followed by incubation for 3 minutes in 100 nM of testing hybridoma. The difference of hybridoma binding curve with or without pre-binding to R&D antibody was analyzed to determine the epitope.

[4] = molecular target: T3, soluble TREM2 (sTREM2) (Homo sapiens, UniProt Q9NZC2); test: Soluble TREM2 (TREM2 shedding) assay in HEK293 TREM2/DAP12 cells; format: cell-based; parameters: key to STREM2: NC = no change; −− = reduced sTREM2; ++ = increased sTREM2; settings: change in sTREM2 levels
T3 construct: expressed in transfected cells
T3 sequence (O43914 22-113 partner, one chain of several): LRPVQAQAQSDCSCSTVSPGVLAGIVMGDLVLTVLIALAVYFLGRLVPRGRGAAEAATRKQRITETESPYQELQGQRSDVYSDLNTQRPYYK
Description: HEK293 cells stably expressing human TREM2 and DAP12 were plated onto 96-well plates pre-coated with poly-D-lysine 4-16 hours prior to antibody treatment. Antibody supernatants or control antibodies were diluted into fresh complete media and added onto cells in triplicate. Cells were incubated with antibody containing media for 18 hours prior to removal of the cell supernatant for assay by TREM2 ELISA. Samples and standards were diluted 1:10 into blocking buffer (3% BSA/TBST) in the assay plate. Briefly, MSD small spot streptavidin plates were coated with biotinylated anti-hTREM2 polyclonal antibody (R&D Systems) overnight at 4° C. or 1 hour at room temperature. Plates were then blocked overnight at 4° C., or 1 hour at room temperature, with blocking buffer, 3% BSA/TBST. Plates were washed three times with TBST in a Biotek plate washer (used for all washes) prior to addition of diluent (blocking buffer) and denatured supernatants from cell culture. A TREM2-His protein diluted in 3% BSA/TBST was used as a standard for absolute quantification. Following 1 hour incubation at room temperature, plates were washed with TBST. The primary detection antibody, sulfo-tagged goat anti-human TREM2 (R&D Systems), diluted in 3% BSA/TBST was added and incubated for 1 hour at room temperature. After washing with TBST, MSD plates were developed using 2×MSD read buffer T, followed by detection using an MSD Sector plate reader. MSD values were converted to absolute quantities of sTREM2 by fitting a standard curve using Prism 7.0 software (Graphpad). Modulation of TREM2 shedding was represented as a ratio to cells cultured with no specific TREM2 antibody in the media.

[5] = molecular target: T4, TREM2 (Homo sapiens, UniProt Q9NZC2); test: FACS binning on human TREM2-HEK cells (competition with R&D antibody); format: binding; settings: epitope bin, 100 nM antibody
T4 construct: expressed in transfected cells
Description: HEK293 overexpressing human TREM2 (H6) were harvested by 0.05% trypsin and incubated at 37° C. incubator for 2 hours for surface TREM2 recovery. After incubation, cells were washed with 1×PBS and FACS buffer (PBS+0.5% BSA) with human Trustain FcX solution (Biolegend, Cat #422302) was added at a density of 10^6/mL. Cells were seeded at 100,000 cells per well in a 96-well round-bottom and incubated 20 minutes at room temperature. After incubation, anti-TREM2 antibodies (100 nM) were added to the cells and the cells were incubated for 45 minutes on ice. After incubation, rat anti-h/mTREM2-APC antibody (1:100, R&D, Cat # FAB17291A) was added to the cells, and the cells were incubated for 30 minutes on ice. After incubation, cells were washed with FACS buffer three times and resuspended in 10 μL FACS buffer, then analyzed by flow cytometry (BD FACSCanto II, San Jose, Calif.). 20,000 events were obtained for each sample. The ability to compete with R&D antibody was determined by MFI analysis compared to isotype or buffer control wells.
T4 sequence (O43914 22-113 partner, one chain of several): as above

[6] = molecular target: T2, TREM2; test: TREM2 pSyk antagonist assay on human macrophages (antibody pre-incubation, then liposomes); format: cell-based; settings: FIGS. 9C-9D, 30 nM antibody
Description: Human macrophages were differentiated from donor blood using a human monocyte enrichment cocktail (Stem Cell Technologies) and culturing monocytes with human mCSF for five days in macrophage media (RPMI+10% Hyclone FBS+Glutamax+Pen/Strep+non-essential amino acids+sodium pyruvate). On the fifth day, the human macrophages were scraped from the flasks and were re-plated at 100,000 cells/well on a 96-well poly-D-lysine-coated plate in the macrophage media (without mCSF). The cells were incubated for 24 hours to adhere, then the media was removed.
Antibodies diluted in RPMI alone were immediately added to the cells, and allowed to incubate for 30 minutes at 37° C. The antibodies were then removed. Lipid vesicles comprised of 70% DOPC and 30% POPS (made according to the procedure for making vesicles described above) in HBSS were added to the cells and incubated […] at 37° C. The liposome/antibody solution was removed, and 35 μL lysis buffer (Cell Signaling Technologies, CST) was added using the liquid handler. The lysate was then incubated at 4° C. for 30 minutes, then either frozen at −80° C. or immediately carried forward to a pSyk AlphaLISA assay as described above.

[7] = test system: hTfR apical domain; test: Biacore T200 binding kinetics to hTfR apical domain; parameters: species or system human; settings: analyte hTfR apical domain
Description: (§1) The binding of the TREM2/TfR-binding protein RS9.F6/3C35.21.17 to TREM2 and TfR was measured using SPR on a Biacore T200 instrument. To measure TfR binding, anti-human-Fab was immobilized on a CM5 chip, and the TREM2/TfR-binding protein was captured. Full-length human TfR or human TfR apical domain at serial dilution (e.g., concentrations of 1-1000 nM) was flowed over the chip (180 second association time) and then allowed to dissociate. Fitting was performed using a 1:1 binding model. To measure TREM2 binding, anti-human-Fc antibody was immobilized on a CM5 chip, and the TREM2/TfR-binding protein was captured. A range of concentrations of recombinant TREM2-His protein were flowed over the chip, and allowed to associate and dissociate. The resulting sensograms were fitted using a 1:1 Langmuir model to estimate kon and koff (FIG. 10).
The affinities of RS9.F6/3C35.21.17 for human TREM2 and TfR were determined by surface plasmon resonance using a Biacore™ T200. Biacore Series S CM5 sensor chips were immobilized with a mixture of two monoclonal mouse anti-Fab antibodies (Human Fab capture kit from GE Healthcare). Serial 3-fold dilutions of each antigen were injected at a flow rate of 30 μL/min. The binding of the antigens to captured antibody was monitored for 30 to 180 seconds and then their dissociation was monitored for 30-300 seconds in HBS-EP+running buffer (GE, # BR100669). […]

[8] = molecular target: T1, hTREM2; test: Biacore T200 binding kinetics to hTREM2; settings: analyte hTREM2
Description: as §1
The affinities of RS9.F6/3C35.21.17 for human TREM2 and TfR were determined by surface plasmon resonance using a Biacore™ T200. Biacore Series S CM5 sensor chips were immobilized with a mixture of two monoclonal mouse anti-Fab antibodies (Human Fab capture kit from GE Healthcare). Serial 3-fold dilutions of each antigen were injected at a flow rate of 30 μL/min. The binding of the antigens to captured antibody was monitored for 30 to 180 seconds and then their dissociation was monitored for 30-300 seconds in HBS-EP+running buffer (GE, # BR100669). Binding response was corrected by subtracting the RU from a blank flow cell. A 1:1 Languir model of simultaneous fitting of kon and koff was used for kinetics analysis.

| Molecule | p-SYK signal [1] | pERK1/2 signal [1] | survival of human macrophages [2] | Bin by Octet [3] | STREM2 [4] | Bin by FACS [5] | liposome mediated pSyk signaling after antibody pre-incubation [6] | ka [7] [M⁻¹ s⁻¹] | kd [7] [s⁻¹] | ka [8] [M⁻¹ s⁻¹] | kd [8] [s⁻¹] |
| --- | --- | --- | --- | --- | --- | --- | --- | --- | --- | --- | --- |
| B1 | robust | robust | increased the survival | 1 | NC | 1 | enhanced |  |  |  |  |
| B2 |  |  |  |  |  |  |  | 1.7e+06 | 0.19 | 150000 | 0.00038 |
| B3 | robust | robust | increased the survival | 1 | NC | 1 |  |  |  |  |  |
